Source: publication PMC2171850

Molecular target: Hrp65, endogenous in C. tentans tissue culture cells (C. tentans (endogenous in C. tentans tissue culture cells))
Assay: co-IP

percent of the association that is RNase-sensitive: 50%
Substance: Hrp59, endogenous in C. tentans tissue culture cells (natural protein)
